For one data set, the target named is T1, E47 (TCF3) (Homo sapiens, UniProt P15923-2 P15923-2:1-651).
T1 sequence: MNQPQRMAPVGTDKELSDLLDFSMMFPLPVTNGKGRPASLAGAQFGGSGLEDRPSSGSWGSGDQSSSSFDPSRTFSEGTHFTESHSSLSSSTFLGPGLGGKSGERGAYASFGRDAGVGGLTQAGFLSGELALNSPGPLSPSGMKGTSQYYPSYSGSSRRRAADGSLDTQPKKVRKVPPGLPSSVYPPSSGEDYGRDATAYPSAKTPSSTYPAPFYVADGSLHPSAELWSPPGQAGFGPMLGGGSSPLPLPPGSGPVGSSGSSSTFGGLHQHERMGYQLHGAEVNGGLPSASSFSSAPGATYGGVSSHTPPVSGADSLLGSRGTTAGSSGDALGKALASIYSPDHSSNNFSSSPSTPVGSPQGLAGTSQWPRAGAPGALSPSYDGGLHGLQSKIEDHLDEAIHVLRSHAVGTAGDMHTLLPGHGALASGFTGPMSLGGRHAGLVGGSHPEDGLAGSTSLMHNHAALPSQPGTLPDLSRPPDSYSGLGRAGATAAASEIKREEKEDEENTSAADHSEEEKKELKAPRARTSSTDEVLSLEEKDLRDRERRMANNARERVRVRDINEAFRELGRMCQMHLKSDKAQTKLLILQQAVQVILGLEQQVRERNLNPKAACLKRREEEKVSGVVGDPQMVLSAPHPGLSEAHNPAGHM
The data set is described as follows: EMSA; 5% non-denaturing PAGE, 30 min incubation; E47 homodimer shifts the probe. The conditions noted are these: tags: recombinant human E47; chain copies: 2 (homodimer, stated); label: 32P. How it is done: (§1) Gel shift assays were performed using the 376 small molecules identified in the in silico drug screen and peptide synthesis. The identified compounds were then dissolved in 5% DMSO to a concentration of […] and reacted in binding mixtures that contained E47, Id1 and Mck. As controls, recombinant human E47 was used in a standard binding reaction that contained ³²P labeled MCK double stranded oligonucleotides containing consensus E-Box response element (MCK-5′ TTGATCCCCCCAACACCTGCTGCCTGAAGCT (SEQ ID NO. 1)) and 100 ng of Id1 was added to a standard binding reaction using E47 and p32 labeled MCK. After 30 minutes of incubation, the reaction mixtures were resolved on a 5% non-denaturing polyacrylamide gel and autoradiographed.

The target in the next data set is T2, E47 + Id1 (Homo sapiens, UniProt P15923-2;P41134 P15923-2:1-651,P41134:1-155).
T2 sequence 1: T1 sequence
T2 sequence 2: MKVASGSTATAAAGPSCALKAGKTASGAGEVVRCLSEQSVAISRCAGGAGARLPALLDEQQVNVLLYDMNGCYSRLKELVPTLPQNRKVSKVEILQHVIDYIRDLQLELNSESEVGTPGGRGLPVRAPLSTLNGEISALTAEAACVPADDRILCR
As to the kind of experiment: EMSA; Id1 (100 ng) added to E47 prevents E47 binding to MCK; binding restored by small-molecule Id inhibitors (100 uM, 5% DMSO). The conditions noted are these: tags: recombinant human E47 mixed with recombinant human Id1 (100 ng); label: 32P. How it is done:
as §1
(In general: A gel shift assay detects complexes by their altered migration in electrophoresis.)

B1: MCK E-box oligonucleotide (dsDNA)
DNA 1: TTGATCCCCCCAACACCTGCTGCCTGAAGCT
DNA 2: AGCTTCAGGCAGCAGGTGTTGGGGGGATCAA
For the molecule B1, the binding result is given as “binds” in the data set with E47 (TCF3) and “no binding” with E47 + Id1.

(Values after patent US20090226422, “Chemical Inhibitors of Inhibitors of Differentiation” (published 2009).)
